Laboratory results from US20110300138A1 (published 2011).
Read-outs that look alike come from different tables or passages of the source.

Tests used:
Test in all cases: cell-based or functional assay
[1] = molecular target: TSHR with Asp232 mutated to Ala expressed in CHO cells (human) (UniProt P16473)
[2] = molecular target: TSHR with Glu61 mutated to Ala, expressed in CHO cells (human) (UniProt P16473)
[3] = molecular target: TSHR with Ile60 mutated to Ala, expressed in CHO cells (human) (UniProt P16473)
[4] = molecular target: TSHR with Lys183 mutated to Asp expressed in CHO cells (human) (UniProt P16473)
[5] = molecular target: TSHR with Lys209 mutated to Ala (expressed in CHO cells) (human) (UniProt P16473)
[6] = molecular target: TSHR with Lys250 mutated to Ala (expressed in CHO cells) (human) (UniProt P16473)
[7] = molecular target: TSHR with Phe130 mutated to Ala, expressed in CHO cells (human) (UniProt P16473)
TSHR with Phe130 mutated to Ala, expressed in CHO cells (human), sequence (P16473 other isoform, or with tags, fused parts or gaps, change not shown): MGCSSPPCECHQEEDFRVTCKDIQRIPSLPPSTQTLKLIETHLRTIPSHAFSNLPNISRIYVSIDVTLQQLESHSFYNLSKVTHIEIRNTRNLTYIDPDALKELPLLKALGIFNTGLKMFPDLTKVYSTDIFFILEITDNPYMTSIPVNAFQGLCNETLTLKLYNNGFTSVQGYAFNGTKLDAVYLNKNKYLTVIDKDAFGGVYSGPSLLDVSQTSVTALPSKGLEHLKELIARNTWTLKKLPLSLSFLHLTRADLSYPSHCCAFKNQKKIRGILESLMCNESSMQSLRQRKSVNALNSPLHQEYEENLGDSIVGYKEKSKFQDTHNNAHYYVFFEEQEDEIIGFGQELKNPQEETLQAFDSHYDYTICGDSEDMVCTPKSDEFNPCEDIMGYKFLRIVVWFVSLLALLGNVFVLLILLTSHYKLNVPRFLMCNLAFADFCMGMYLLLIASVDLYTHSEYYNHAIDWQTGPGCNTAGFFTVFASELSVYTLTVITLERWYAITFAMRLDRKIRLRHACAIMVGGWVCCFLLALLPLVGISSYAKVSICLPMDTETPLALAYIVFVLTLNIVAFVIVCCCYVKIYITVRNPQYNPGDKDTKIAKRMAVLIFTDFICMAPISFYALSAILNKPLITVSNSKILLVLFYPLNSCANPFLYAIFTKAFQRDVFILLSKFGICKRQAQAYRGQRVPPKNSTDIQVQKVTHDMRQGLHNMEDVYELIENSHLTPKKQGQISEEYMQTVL

TSHR with Lys250 mutated to Ala (expressed in CHO cells) (human), sequence (P16473 other isoform, or with tags, fused parts or gaps, change not shown): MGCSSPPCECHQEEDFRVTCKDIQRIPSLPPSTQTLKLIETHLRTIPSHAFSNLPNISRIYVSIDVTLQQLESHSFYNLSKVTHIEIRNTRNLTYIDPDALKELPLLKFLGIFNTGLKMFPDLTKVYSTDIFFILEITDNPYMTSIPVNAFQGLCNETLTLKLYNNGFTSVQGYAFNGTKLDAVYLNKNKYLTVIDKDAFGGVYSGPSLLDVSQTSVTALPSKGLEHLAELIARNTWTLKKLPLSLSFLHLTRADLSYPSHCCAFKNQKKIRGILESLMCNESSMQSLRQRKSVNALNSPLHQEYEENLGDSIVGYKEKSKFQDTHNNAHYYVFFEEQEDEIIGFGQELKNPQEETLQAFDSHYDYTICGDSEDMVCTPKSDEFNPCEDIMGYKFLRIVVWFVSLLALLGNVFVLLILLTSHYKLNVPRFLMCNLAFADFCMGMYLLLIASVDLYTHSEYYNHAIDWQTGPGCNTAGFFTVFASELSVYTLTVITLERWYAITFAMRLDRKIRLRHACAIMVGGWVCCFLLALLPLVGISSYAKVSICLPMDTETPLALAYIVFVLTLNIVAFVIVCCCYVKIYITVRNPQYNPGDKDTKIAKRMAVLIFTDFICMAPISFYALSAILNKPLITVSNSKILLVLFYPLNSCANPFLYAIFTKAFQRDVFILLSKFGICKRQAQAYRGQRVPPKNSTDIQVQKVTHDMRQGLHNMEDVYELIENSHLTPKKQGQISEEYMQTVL
TSHR with Lys209 mutated to Ala (expressed in CHO cells) (human), sequence (P16473 other isoform, or with tags, fused parts or gaps limits assumed, change not shown): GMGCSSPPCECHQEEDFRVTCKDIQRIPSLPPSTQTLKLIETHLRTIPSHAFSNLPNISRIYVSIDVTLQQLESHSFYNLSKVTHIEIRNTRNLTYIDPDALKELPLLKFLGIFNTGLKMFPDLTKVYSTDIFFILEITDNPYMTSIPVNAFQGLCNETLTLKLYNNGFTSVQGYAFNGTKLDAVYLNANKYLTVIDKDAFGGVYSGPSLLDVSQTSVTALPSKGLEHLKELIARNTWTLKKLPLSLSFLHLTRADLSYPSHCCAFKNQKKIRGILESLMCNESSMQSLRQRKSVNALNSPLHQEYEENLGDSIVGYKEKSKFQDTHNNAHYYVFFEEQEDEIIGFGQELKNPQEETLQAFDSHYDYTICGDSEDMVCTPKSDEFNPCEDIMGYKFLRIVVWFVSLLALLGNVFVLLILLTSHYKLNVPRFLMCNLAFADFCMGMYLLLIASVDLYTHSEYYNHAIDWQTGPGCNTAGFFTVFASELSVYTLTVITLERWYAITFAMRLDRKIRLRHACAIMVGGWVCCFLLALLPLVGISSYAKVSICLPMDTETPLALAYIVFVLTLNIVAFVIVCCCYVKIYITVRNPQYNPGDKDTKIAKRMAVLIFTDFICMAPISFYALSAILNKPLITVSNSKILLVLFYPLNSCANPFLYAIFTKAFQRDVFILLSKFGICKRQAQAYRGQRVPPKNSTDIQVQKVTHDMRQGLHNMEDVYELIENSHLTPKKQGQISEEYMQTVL
TSHR with Lys183 mutated to Asp expressed in CHO cells (human), sequence (P16473 other isoform, or with tags, fused parts or gaps limits assumed, change not shown): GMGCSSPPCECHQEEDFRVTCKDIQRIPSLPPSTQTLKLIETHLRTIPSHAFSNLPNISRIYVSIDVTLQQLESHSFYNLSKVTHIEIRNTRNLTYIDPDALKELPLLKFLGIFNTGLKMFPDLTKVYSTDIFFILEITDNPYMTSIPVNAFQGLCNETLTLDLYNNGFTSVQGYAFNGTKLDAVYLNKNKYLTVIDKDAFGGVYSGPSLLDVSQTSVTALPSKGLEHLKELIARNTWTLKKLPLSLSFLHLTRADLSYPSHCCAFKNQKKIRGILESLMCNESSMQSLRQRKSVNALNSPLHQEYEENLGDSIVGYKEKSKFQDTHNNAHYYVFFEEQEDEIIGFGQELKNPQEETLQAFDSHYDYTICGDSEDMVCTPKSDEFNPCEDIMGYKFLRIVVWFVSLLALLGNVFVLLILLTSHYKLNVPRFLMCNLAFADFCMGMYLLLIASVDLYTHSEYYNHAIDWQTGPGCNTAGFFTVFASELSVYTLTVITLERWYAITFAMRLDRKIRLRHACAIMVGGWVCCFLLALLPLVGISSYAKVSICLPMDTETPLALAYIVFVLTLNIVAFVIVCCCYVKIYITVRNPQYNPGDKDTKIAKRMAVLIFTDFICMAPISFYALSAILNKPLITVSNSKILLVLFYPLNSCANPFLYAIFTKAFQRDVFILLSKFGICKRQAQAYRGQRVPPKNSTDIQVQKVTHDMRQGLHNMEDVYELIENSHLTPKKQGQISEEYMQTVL
TSHR with Asp232 mutated to Ala expressed in CHO cells (human), sequence (P16473 other isoform, or with tags, fused parts or gaps limits assumed, change not shown): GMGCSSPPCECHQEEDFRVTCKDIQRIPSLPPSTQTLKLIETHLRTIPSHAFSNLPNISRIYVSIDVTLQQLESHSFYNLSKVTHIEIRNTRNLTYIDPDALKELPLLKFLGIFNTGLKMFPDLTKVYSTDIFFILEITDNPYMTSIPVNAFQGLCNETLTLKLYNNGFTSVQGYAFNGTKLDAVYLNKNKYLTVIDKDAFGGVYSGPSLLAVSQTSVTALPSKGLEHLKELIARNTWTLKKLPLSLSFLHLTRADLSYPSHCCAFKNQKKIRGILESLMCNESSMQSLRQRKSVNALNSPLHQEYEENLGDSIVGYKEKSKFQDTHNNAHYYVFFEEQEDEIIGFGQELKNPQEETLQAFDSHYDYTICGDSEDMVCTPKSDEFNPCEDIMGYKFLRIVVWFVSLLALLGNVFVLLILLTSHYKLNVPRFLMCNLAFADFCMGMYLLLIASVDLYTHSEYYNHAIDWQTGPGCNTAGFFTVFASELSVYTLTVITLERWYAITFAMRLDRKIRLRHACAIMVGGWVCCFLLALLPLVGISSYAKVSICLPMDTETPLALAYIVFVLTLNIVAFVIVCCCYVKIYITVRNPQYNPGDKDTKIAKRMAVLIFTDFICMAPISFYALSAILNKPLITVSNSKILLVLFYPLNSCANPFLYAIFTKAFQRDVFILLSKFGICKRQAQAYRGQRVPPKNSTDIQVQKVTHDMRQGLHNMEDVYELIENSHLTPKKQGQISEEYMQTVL

Cyclic AMP produced, mutated TSHR, TSH 3 ng/mL (Experiment 1) [1]: 41 pmol/mL | Cyclic AMP produced, mutated TSHR, TSH 3 ng/mL (Experiment 2) [1]: 62 pmol/mL | Mutated/Wild type (%) of cyclic AMP produced, TSH 0.01 ng/mL, Experiment 1 [1]: 83% | Mutated/Wild type (%) of cyclic AMP produced, TSH 0.01 ng/mL, Experiment 2 [1]: 62% | Mutated/Wild type (%) of cyclic AMP produced, TSH 0.03 ng/mL, Experiment 1 [1]: 88% | Mutated/Wild type (%) of cyclic AMP produced, TSH 0.03 ng/mL, Experiment 2 [1]: 83% | Mutated/Wild type (%) of cyclic AMP produced, TSH 0.1 ng/mL, Experiment 1 [1]: 87% | Mutated/Wild type (%) of cyclic AMP produced, TSH 0.1 ng/mL, Experiment 2 [1]: 84% | Mutated/Wild type (%) of cyclic AMP produced, TSH 0.3 ng/mL, Experiment 1 [1]: 80% | Mutated/Wild type (%) of cyclic AMP produced, TSH 0.3 ng/mL, Experiment 2 [1]: 75% | Mutated/Wild type (%) of cyclic AMP produced, TSH 1 ng/mL, Experiment 1 [1]: 70% | Mutated/Wild type (%) of cyclic AMP produced, TSH 1 ng/mL, Experiment 2 [1]: 60% | Mutated/wild type (%) of cyclic AMP produced; TSH 3 ng/mL; Experiment 1 [1]: 66% | Mutated/wild type (%) of cyclic AMP produced; TSH 3 ng/mL; Experiment 2 [1]: 64% | % inhibition of TSH stimulation; TSH (2), run at the end of assay [2]: 17% | Mutated/Wild type (%) of cyclic AMP produced, TSH 0.01 ng/mL [2]: 470% | Mutated/Wild type (%) of cyclic AMP produced, TSH 0.03 ng/mL [2]: 369% | Mutated/Wild type (%) of cyclic AMP produced, TSH 0.1 ng/mL [2]: 271% | Mutated/Wild type (%) of cyclic AMP produced, TSH 0.3 ng/mL [2]: 188% | Mutated/Wild type (%) of cyclic AMP produced, TSH 1 ng/mL [2]: 129% | Mutated/wild type (%) of cyclic AMP produced; TSH 3 ng/mL [2]: 110% | Mutated/wild type (%) of cyclic AMP produced; TSH (2) 3 ng/mL, run at the end of assay [2]: 51% | Mutated/wild type (%) of cyclic AMP produced; TSH 3 ng/mL ([2]; record 2): 67% | % inhibition of TSH stimulation; TSH (2), run at the end of assay; Experiment 1 [3]: 12% | % inhibition of TSH stimulation; TSH (2), run at the end of assay; Experiment 2 [3]: 13% | Mutated/Wild type (%) of cyclic AMP produced, TSH 0.01 ng/mL [3]: 358% | Mutated/Wild type (%) of cyclic AMP produced, TSH 0.03 ng/mL [3]: 178% | Mutated/Wild type (%) of cyclic AMP produced, TSH 0.1 ng/mL [3]: 201% | Mutated/Wild type (%) of cyclic AMP produced, TSH 0.3 ng/mL [3]: 96% | Mutated/Wild type (%) of cyclic AMP produced, TSH 1 ng/mL [3]: 77% | Mutated/wild type (%) of cyclic AMP produced; TSH 3 ng/mL [3]: 83% | Mutated/wild type (%) of cyclic AMP produced; TSH 3 ng/mL; Experiment 1 [3]: 57% | Mutated/wild type (%) of cyclic AMP produced; TSH 3 ng/mL; Experiment 2 [3]: 81% | Mutated/wild type (%) of cyclic AMP produced; TSH (2) 3 ng/mL, run at the end of assay; Experiment 1 [3]: 54% | Mutated/wild type (%) of cyclic AMP produced; TSH (2) 3 ng/mL, run at the end of assay; Experiment 2 [3]: 69% | Cyclic AMP produced (pmol/mL), mutated TSHR, TSH 0.01 ng/mL [4]: 4.08 pmol/mL | Cyclic AMP produced (pmol/mL), mutated TSHR, TSH 0.03 ng/mL [4]: 7.18 pmol/mL | Cyclic AMP produced (pmol/mL), mutated TSHR, TSH 0.1 ng/mL [4]: 19.1 pmol/mL | Cyclic AMP produced (pmol/mL), mutated TSHR, TSH 0.3 ng/mL [4]: 51.7 pmol/mL | Cyclic AMP produced (pmol/mL), mutated TSHR, TSH 1 ng/mL [4]: 93.3 pmol/mL | Cyclic AMP produced (pmol/mL), mutated TSHR, TSH 3 ng/mL [4]: 106 pmol/mL | Mutated/Wild type (%), TSH 0.01 ng/mL [4]: 165% | Mutated/Wild type (%), TSH 0.03 ng/mL [4]: 155% | Mutated/Wild type (%), TSH 0.1 ng/mL [4]: 109% | Mutated/Wild type (%), TSH 0.3 ng/mL [4]: 128% | Mutated/Wild type (%), TSH 1 ng/mL [4]: 101% | Mutated/Wild type (%), TSH 3 ng/mL [4]: 102% | Mutated/Wild type (%) of cyclic AMP produced, TSH 0.01 ng/mL [5]: 171% | Mutated/Wild type (%) of cyclic AMP produced, TSH 0.03 ng/mL [5]: 128% | Mutated/Wild type (%) of cyclic AMP produced, TSH 0.1 ng/mL [5]: 65% | Mutated/Wild type (%) of cyclic AMP produced, TSH 0.3 ng/mL [5]: 64% | Mutated/Wild type (%) of cyclic AMP produced, TSH 1 ng/mL [5]: 45% | Cyclic AMP produced, TSH 0.01 ng/mL [6]: 8.29 pmol/mL | Cyclic AMP produced, TSH 0.03 ng/mL [6]: 12.6 pmol/mL | Cyclic AMP produced, TSH 0.1 ng/mL [6]: 28.8 pmol/mL | Cyclic AMP produced, TSH 0.3 ng/mL [6]: 66.2 pmol/mL | Cyclic AMP produced, TSH 1 ng/mL [6]: 87.9 pmol/mL | Cyclic AMP produced; TSH 3 ng/mL [6]: 110 pmol/mL | Mutated/Wild type (%) of cyclic AMP produced, TSH 0.01 ng/mL [6]: 207% | Mutated/Wild type (%) of cyclic AMP produced, TSH 0.03 ng/mL [6]: 189% | Mutated/Wild type (%) of cyclic AMP produced, TSH 0.1 ng/mL [6]: 147% | Mutated/Wild type (%) of cyclic AMP produced, TSH 0.3 ng/mL [6]: 147% | Mutated/Wild type (%) of cyclic AMP produced, TSH 1 ng/mL [6]: 116% | Mutated/wild type (%) of cyclic AMP produced; TSH 3 ng/mL [6]: 126% | Cyclic AMP produced, TSH 0.01 ng/mL, mutated TSHR [7]: 3.05 pmol/mL | Cyclic AMP produced, TSH 0.03 ng/mL, mutated TSHR [7]: 4.12 pmol/mL | Cyclic AMP produced, TSH 0.1 ng/mL, mutated TSHR [7]: 9.61 pmol/mL | Cyclic AMP produced, TSH 0.3 ng/mL, mutated TSHR [7]: 35.6 pmol/mL | Cyclic AMP produced, TSH 1 ng/mL, mutated TSHR [7]: 66.2 pmol/mL | Cyclic AMP produced, TSH 3 ng/mL, mutated TSHR [7]: 80.4 pmol/mL | Mutated/Wild type (%), TSH 0.01 ng/mL [7]: 134% | Mutated/Wild type (%), TSH 0.03 ng/mL [7]: 109% | Mutated/Wild type (%), TSH 0.1 ng/mL [7]: 101% | Mutated/Wild type (%), TSH 0.3 ng/mL [7]: 124% | Mutated/Wild type (%), TSH 1 ng/mL [7]: 86% | Mutated/Wild type (%), TSH 3 ng/mL [7]: 86%
Substance: TSH (ligand)
